Values quoted from earlier work in patent US12246031B2, “Compositions and methods for tumor immunotherapy” (CHECKMATE PHARMACEUTICALS, INC., priority 2018, dated 2025).

Target: PD-L1 (Homo sapiens, UniProt Q9NZQ7)
Details: anti-PD-L1 antibody in clinical development

Chain of PD-L1 (Q9NZQ7 19-290): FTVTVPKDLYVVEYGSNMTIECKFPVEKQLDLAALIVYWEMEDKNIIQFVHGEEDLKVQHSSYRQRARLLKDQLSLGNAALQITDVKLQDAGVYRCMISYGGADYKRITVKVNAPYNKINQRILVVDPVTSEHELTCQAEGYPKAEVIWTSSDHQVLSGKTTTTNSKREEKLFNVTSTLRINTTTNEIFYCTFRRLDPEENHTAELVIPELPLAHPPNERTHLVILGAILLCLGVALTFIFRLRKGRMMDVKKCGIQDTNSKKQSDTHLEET

- Kd: 0.4 nM
Substance: MPDL3280A: anti-PD-L1 antibody under development in human clinical trials (Genetech/Roche)
